Results: patent US20220396819A1, “METHOD FOR PRODUCING PEPTIDE HAVING PHYSIOLOGICAL ACTIVITY, AND PEPTIDE COMPRISING SHORT LINKER” (priority 2019, published 2022)
Like-named read-outs stand apart in the source and are kept apart here. Positions of bridges follow the written chain, without caps; N, C: chain ends. No end group written: not given here.

Tests used:
HEL cells [1] = assay: Thrombopoietin-like activity, tyrosine phosphorylation levels in HEL cells (dot blot); format: cell-based, human; details: for increase in tyrosine phosphorylation levels compared with rhTPO: culture supernatant diluted, 20 minutes, rhTPO 10 to 100 ng/mL, FIG. 41
Experimental: The thrombopoietin-like activity of the TPO-PAS dimer peptide was evaluated by quantification of tyrosine phosphorylation levels in HEL cells, a human leukemia-derived blood cell line. 200,000 HEL cells were cultured in RPMI 1640 medium without FBS (Thermo Fisher Scientific) for 24 hours and starved. The cells were stimulated for 20 minutes in RPMI 1640 medium supplemented with 10 to 100 ng/mL recombinant human TPO (rhTPO, Peprotech) or a culture supernatant containing AET-TPO1-PAS8, TPO2-PAS8, or AET-TPO2-PAS8 at a predetermined dilution factor. As a negative control, PBS (Mock group) or a supernatant expressing no peptide (Empty group) by using an empty vector was added, and stimulation was performed for 20 minutes. After removing the medium and washing the cells once with PBS, the cells were lysed by adding 100 μL of Lysis buffer 17 (R&D Systems) supplemented with Protease inhibitor cocktail (Nacalai Tesque). The lysate solution was centrifuged at 14,000 G for 5 minutes to obtain the supernatant as lysate.
APVDF membrane (Immobilon-P membrane 0.45 m, Merck) was treated with methanol for 1 minute and then with ultrapure water for 5 minutes for hydrophilic treatment. The PVDF membrane was dried, and each cell lysate solution was spotted with a 1 μL pipette and dried. The PVDF membrane was blocked with PVDF Blocking Reagent for Can Get Signal (NOF) at room temperature for 1 hour, and then Can Get Signal Solution 2 (NOF), supplemented with anti-pY antibody-[…] conjugate (Cell Signaling Technology) at 1:5000, was added, followed by an antibody reaction at 4° C. for 24 hours. The membrane was washed 3 times with TBST buffer, Luminata Crescendo Western HRP Substrate (Merck) was added, and a chemiluminescence reaction was carried out. Chemiluminescence was detected using Amersham Imager 600 (GE Healthcare). The luminescence intensity of the detected dots was quantified by ImageJ.

HEL cells [2] = assay: Signal characteristics, Proteome Profiler Human Phospho-Kinase Array Kit, HEL cells; format: cell-based; details: 100 ng/mL rhTPO or culture supernatant 1/100 to 1/1000, 20 minutes, FIG. 43
Experimental: The signal characteristics of the TPO-PAS dimer peptide were evaluated using Proteome Profiler Human Phospho-Kinase Array Kit (R&D Systems).
1,000,000 HEL cells were cultured in RPMI 1640 medium without FBS (Thermo Fisher Scientific) for 24 hours and starved. The cells were stimulated for 20 minutes in RPMI 1640 medium supplemented with 100 ng/mL recombinant human TPO (rhTPO, Peprotech) or a culture supernatant containing TPO2-PAS8 at a dilution of 1/100 to 1/1000. As a negative control, PBS was added, and stimulation was performed for 20 minutes (Mock group). After removing the medium and washing the cells once with PBS, the cells were lysed by adding 200 μL of Lysis buffer 17 (R&D Systems) supplemented with Protease inhibitor cocktail (Nacalai Tesque). The lysate solution was centrifuged at 14,000 G for 5 minutes to obtain the supernatant as lysate.
The lysate was analyzed using Proteome Profiler Human Phospho-Kinase Array Kit. Amersham Imager 600 (GE Healthcare) was used to detect chemiluminescence. The chemiluminescence intensity of the dots was quantified using ImageJ. […] The signal pathway stimulated by rhTPO is mainly the JAK2/Stat3,5 pathway, and all of the proteins with increased phosphorylation levels are included in the pathway.

FGFR = biological target: T1, FGFR (Homo sapiens, UniProt P11362); assay: FGFR inhibitory activity, SRE luciferase assay in HEK293E cells stimulated with bFGF; format: cell-based; details: peptide at 10 μM, 0 to 10 ng/mL bFGF, FIG. 3
T1 construct: endogenous in cells; host or cells: HEK293E
T1 sequence (P11362 22-822): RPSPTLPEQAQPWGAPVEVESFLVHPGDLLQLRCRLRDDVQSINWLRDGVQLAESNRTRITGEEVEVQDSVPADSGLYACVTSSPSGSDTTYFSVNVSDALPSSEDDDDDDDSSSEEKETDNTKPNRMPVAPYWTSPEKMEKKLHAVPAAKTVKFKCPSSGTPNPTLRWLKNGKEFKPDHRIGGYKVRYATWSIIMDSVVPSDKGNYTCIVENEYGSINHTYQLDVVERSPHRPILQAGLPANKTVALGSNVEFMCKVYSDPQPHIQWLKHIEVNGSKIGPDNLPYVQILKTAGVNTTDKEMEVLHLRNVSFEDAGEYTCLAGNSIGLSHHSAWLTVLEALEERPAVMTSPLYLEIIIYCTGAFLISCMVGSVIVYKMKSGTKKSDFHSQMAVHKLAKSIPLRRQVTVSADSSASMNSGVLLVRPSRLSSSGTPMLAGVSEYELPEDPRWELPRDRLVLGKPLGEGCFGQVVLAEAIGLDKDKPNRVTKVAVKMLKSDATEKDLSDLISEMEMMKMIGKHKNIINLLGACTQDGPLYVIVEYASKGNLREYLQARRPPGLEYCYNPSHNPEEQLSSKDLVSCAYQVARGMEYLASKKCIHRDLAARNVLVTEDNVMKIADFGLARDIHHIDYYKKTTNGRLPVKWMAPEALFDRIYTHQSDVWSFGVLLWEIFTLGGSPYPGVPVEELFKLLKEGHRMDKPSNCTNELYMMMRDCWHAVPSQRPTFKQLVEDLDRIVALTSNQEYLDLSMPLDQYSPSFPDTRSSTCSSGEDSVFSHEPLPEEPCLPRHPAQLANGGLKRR
Experimental: The inhibitory activity of the FBP monomer peptide chemically synthesized with the FBP-PAS dimer peptide on FGFR was evaluated by luciferase assay. To 25 μL of Opti-MEM medium (Thermo Fisher Scientific), 0.6 μL of Attractene Transfection Reagent (QIAGEN) was added, and the mixture was incubated at room temperature for 5 minutes. To the above mixed solution, a mixed solution of 25 μL of Opti-MEM and 1 μL of SRE reporter vector (QIAGEN) was added, and the mixture was incubated at room temperature for 20 minutes. This mixed solution was added to a 96-well plate, over which 40,000 cell/well HEK293E cells were seeded and incubated overnight in a 5% CO2 incubator at 37° C. […]
The signal intensities were detected using Dual-Luciferase Reporter Assay System (Promega). […] The luminescence of Firefly luciferase emitted from the cell lysate solution was detected with a plate reader to quantify the activation of the FGFR-Erk-SRE pathway. Subsequently, 50 μL of Glo & Stop reagent solution was added, and after 10 minutes, the luminescence of the internal standard Renilla luciferase was detected to quantify the number of cells. The signal activity of each sample was quantified as SRE activity=(Firefly luciferase luminescence intensity)/(Renilla luciferase luminescence intensity). […]

Met (HGF receptor) = Met (HGF receptor) (UniProt P08581); assay: cell-based or functional assay
Chain of Met (HGF receptor) (P08581 25-1390 limits assumed): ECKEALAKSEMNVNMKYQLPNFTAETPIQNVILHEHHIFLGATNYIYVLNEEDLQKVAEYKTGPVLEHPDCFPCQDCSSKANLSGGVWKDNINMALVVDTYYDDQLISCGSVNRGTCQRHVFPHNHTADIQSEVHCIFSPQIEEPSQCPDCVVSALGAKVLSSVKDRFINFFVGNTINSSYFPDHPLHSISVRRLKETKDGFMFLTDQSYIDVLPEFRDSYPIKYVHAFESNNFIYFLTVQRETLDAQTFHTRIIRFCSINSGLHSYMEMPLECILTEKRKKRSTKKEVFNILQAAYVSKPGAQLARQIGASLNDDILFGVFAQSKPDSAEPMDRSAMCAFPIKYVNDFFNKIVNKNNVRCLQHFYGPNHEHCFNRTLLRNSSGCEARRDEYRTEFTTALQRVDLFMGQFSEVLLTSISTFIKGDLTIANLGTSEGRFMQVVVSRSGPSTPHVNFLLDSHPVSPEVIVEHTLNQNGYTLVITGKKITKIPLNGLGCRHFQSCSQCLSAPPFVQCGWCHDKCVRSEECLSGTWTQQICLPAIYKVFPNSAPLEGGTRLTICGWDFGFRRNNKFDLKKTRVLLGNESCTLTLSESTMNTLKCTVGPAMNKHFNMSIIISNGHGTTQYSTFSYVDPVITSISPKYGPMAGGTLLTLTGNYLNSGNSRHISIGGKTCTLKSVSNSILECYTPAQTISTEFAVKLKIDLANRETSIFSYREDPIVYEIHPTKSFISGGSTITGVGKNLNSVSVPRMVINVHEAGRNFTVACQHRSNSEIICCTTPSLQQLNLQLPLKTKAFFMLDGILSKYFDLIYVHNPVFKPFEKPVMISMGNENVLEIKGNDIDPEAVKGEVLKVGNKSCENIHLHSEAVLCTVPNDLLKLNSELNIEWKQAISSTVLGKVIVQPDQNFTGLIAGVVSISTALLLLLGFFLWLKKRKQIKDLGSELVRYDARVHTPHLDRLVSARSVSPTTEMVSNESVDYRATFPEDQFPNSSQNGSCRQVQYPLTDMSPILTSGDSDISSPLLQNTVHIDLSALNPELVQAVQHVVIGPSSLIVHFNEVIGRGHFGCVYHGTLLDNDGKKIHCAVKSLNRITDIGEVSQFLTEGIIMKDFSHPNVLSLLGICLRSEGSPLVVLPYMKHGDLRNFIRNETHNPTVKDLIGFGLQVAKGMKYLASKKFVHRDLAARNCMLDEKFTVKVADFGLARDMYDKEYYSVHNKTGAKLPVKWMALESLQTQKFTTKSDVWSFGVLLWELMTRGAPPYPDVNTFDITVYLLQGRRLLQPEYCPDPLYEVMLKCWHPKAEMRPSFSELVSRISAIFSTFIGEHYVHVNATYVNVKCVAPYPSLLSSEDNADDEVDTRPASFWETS

EpoR [3] = biological target: T2, EpoR (UniProt P19235 25-508, limits assumed); assay: cell-based or functional assay
T2 sequence (looked up): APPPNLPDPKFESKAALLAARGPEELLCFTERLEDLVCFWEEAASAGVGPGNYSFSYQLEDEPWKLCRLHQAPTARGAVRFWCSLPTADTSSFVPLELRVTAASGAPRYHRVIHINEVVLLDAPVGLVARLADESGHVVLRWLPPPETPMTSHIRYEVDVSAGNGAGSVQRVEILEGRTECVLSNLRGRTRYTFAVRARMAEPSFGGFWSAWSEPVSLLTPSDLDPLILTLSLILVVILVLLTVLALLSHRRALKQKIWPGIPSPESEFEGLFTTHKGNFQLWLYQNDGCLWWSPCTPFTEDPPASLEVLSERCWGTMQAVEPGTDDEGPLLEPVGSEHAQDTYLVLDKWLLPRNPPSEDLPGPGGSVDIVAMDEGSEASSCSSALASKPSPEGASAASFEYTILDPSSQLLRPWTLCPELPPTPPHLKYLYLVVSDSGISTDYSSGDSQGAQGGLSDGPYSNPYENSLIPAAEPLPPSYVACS

EpoR [4] = biological target: T2, EpoR; assay: cell-based or functional assay; remark: listed apart in the source

GGCADGPTLREWISFCGGAAPAAPAPGGCADGPTLREWISFCGG (disulfide 3-16, 29-42) [TPO2-PAS8]
luminescence intensity (HEL cell activation ability) compared with rhTPO (HEL cells [1]; culture supernatant 1/100 to 1/10000 dilution, FIG. 42): equal to or higher than that of the 100 ng/mL rhTPO stimulation group | increase in tyrosine phosphorylation levels compared with rhTPO (HEL cells [1]): equal to or higher than that of rhTPO | phosphorylation levels of signal proteins compared with PBS (Mock group) (HEL cells [2]): increased in phosphorylation levels of Erk, CREB, Stat3, Stat5a, and Stat5b

RPGCGPRKPRTPKKCGSHGAAPAAPAPAAPAAPAPAAPAGRPGCGPRKPRTPKKCGSH (disulfide 4-15, 44-55) [FBP-PAS]
inhibitory activity on FGFR (relative receptor activity) (FGFR): higher inhibitory activity than the FBP monomer peptide

AETGGCADGPTLREWISFCGGAAPAAPAPGGCADGPTLREWISFCGG (disulfide 6-19, 32-45) [AET-TPO2-PAS8]
increase in tyrosine phosphorylation levels compared with rhTPO (HEL cells [1]): equal to or higher than that of rhTPO

AETIEGPTLRQWLAARAAAPAAPAPIEGPTLRQWLAARA (AET-TPO1-PAS8)
increase in tyrosine phosphorylation levels compared with rhTPO (HEL cells [1]): equal to or higher than that of rhTPO

recombinant human HGF (from UniProt P14210 32-728) (ligand)
rate of wound healing of HuCCT1 cells (33 ng/mL HGF) (Met (HGF receptor)): 1.6 times

B1: AET-EPO-PAS22 (peptide)
peptide: AETGGLYACHMGPMTWVCQPLRGAAPAAPAPAAPAAPAPAAPAAPGGLYACHMGPMTWVCQPLRG
modifications: disulfide 9-18, 51-60
EC50 (EpoR [3]): 0.34 ng/mL

B2: AET-EPO-PAS22-PAS600 (peptide)
peptide: AETGGLYACHMGPMTWVCQPLRGAAPAAPAPAAPAAPAPAAPAAPGGLYACHMGPMTWVCQPLRGAAPAAPAPAAPAAPAPAAPAAPAPAAPAAPAPAAPAAPAPAAPAAPAPAAPAAPAPAAPAAPAPAAPAAPAPAAPAAPAPAAPAAPAPAAPAAPAPAAPAAPAPAAPAAPAPAAPAAPAPAAPAAPAPAAPAAPAPAAPAAPAPAAPAAPAPAAPAAPAPAAPAAPAPAAPAAPAPAAPAAPAPAAPAAPAPAAPAAPAPAAPAAPAPAAPAAPAPAAPAAPAPAAPAAPAPAAPAAPAPAAPAAPAPAAPAAPAPAAPAAPAPAAPAAPAPAAPAAPAPAAPAAPAPAAPAAPAPAAPAAPAPAAPAAPAPAAPAAPAPAAPAAPAPAAPAAPAPAAPAAPAPAAPAAPAPAAPAAPAPAAPAAPAPAAPAAPAPAAPAAPAPAAPAAPAPAAPAAPAPAAPAAPAPAAPAAPAPAAPAAPAPAAPAAPAPAAPAAPAPAAPAAPAPAAPAAPAPAAPAAPAPAAPAAPAPAAPAAPAPAAPAAPAPAAPAAPAPAAPAAPAPAAPAAPAPAAPAAPAPAAPAAPAPAAPAAPAPAAPAAPAPAAPAAPAPAAPAAPAPAAPAAPAPAAPAAPAPAAPAAPAPAAPAAPAPAAPAAPAP
modifications: two disulfide bonds in the molecule
EC50 (EpoR [4]): 0.32 ng/mL

GGLYACHMGPMTWVCQPLRG [monomer peptide EMP35]
EC50 (EpoR [3]): 110 ng/mL

B3: AET-EPO-PAS8 (peptide)
peptide: AETGGLYACHMGPMTWVCQPLRGAAPAAPAPGGLYACHMGPMTWVCQPLRG
modifications: disulfide 9-18, 37-46
EC50 (EpoR [3]): 0.19 ng/mL

B4: AET-EPO-PAS22-PAS200 (peptide)
peptide: AETGGLYACHMGPMTWVCQPLRGAAPAAPAPAAPAAPAPAAPAAPGGLYACHMGPMTWVCQPLRGAAPAAPAPAAPAAPAPAAPAAPAPAAPAAPAPAAPAAPAPAAPAAPAPAAPAAPAPAAPAAPAPAAPAAPAPAAPAAPAPAAPAAPAPAAPAAPAPAAPAAPAPAAPAAPAPAAPAAPAPAAPAAPAPAAPAAPAPAAPAAPAPAAPAAPAPAAPAAPAPAAPAAPAPAAPAAPAPAAPAAPAPAAPAAPAPAAPAAPAP
modifications: two disulfide bonds in the molecule
EC50 (EpoR [4]): 0.85 ng/mL
